Assay results reported in patent US20200157194A1 (Regeneron, published 2020).
“And” between values parts separate entries of the source, which are not always exact repeats. Identical values can stand only once. Like-named read-outs stand apart in the source and are kept apart here.

T1: human GREM1 (hGREM1-His; SEQ ID NO: 595) (human, UniProt O60565 25-184)
T1 construct: also called biotin-hGREM1-His; recombinant human GREM1 protein
T1 sequence: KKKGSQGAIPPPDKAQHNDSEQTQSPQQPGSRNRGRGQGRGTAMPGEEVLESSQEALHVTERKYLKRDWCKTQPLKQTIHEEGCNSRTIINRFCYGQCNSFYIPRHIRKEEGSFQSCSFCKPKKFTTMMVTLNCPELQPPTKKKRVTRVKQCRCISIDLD

B1: recombinant human GREM1 (hGREM1-His; C-terminal 10His tagged, R&D, #5190-GR) (ligand)
chain: KKKGSQGAIPPPDKAQHNDSEQTQSPQQPGSRNRGRGQGRGTAMPGEEVLESSQEALHVTERKYLKRDWCKTQPLKQTIHEEGCNSRTIINRFCYGQCNSFYIPRHIRKEEGSFQSCSFCKPKKFTTMMVTLNCPELQPPTKKKRVTRVKQCRCISIDLDHHHHHHHHHH

Experiments:
[1] = molecular target: T1, human GREM1 (hGREM1-His; SEQ ID NO: 595); test: SPR, Biacore T200, 25 C, mAb captured, hGREM1-His injected;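 further: Heparin-supplemented HBS-EP+ used as running buffer, association and dissociation phases followed, Kd computed as koff divided by kon and half-life derived from koff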
[2] = molecular target: B1; test: cell-based or functional assay
[3] = molecular target: recombinant human BMP4 (hBMP4; R&D, #314-BP/CF) (human); test: cell-based or functional assay
[4] = molecular target: recombinant human BMP4 (hBMP4; R&D, #314-BP/CF) (human); test: cell-based or functional assay; remark: listed apart in the source
[5] = molecular target: recombinant human BMP4 (hBMP4; R&D, #314-BP/CF) (human); test: cell-based or functional assay; remark: listed apart in the source

Chain of recombinant human BMP4 (hBMP4; R&D, #314-BP/CF) (human) (P12644 293-408): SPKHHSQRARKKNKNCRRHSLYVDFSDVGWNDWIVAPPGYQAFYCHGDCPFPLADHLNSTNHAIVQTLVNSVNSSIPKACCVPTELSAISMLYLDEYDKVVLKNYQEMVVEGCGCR

Kd [1] [nM] | koff [1] [s⁻¹] | kon [1] [M⁻¹ s⁻¹] | t1/2 [1] [min] | IC50 [M], inhibition of hGREM1-His, W-20-17/BRE-luc luciferase (100 pM hBMP4, 10 nM hGREM1-His) [2] [M] | IC50 [M], inhibition of hGREM1-His, W-20-17/BRE-luc luciferase (200 pM hBMP4, 20 nM hGREM1-His) [2] [M] | hGrem1-His IC50 (nM), inhibition of 100 pM hBMP4, W-20-17/BRE-luc luciferase [3] | hGrem1-His IC50 (nM), inhibition of 200 pM hBMP4, W-20-17/BRE-luc luciferase [3] [nM] | hGrem1-His IC50 (nM), inhibition of 100 pM hBMP4, W-20-17/BRE-luc luciferase [4] [nM] | hGREM1-His, IC50 (M); W-20-17 cell differentiation assay (alkaline phosphatase) [5] [M] | Binder | binding result [1]
270 | 0.002 | 8000 | 5.8 | 2.1e-09 | – | – | – | – | – | H2aM2899N (antibody, mouse IgG2, V domains shown, H2M prefix = mouse IgG2 Fc (here H2aM); also called H2M2899N) VH: QVQLVQSGAEVKKPGASVKVSCKASGFTFTSYDINWVRQATGQGLEWMGWMNPKSGNTDYAQKFLGRVTLTRNTSKSTAYMELSSLRSEDTAVYYCARGKQLVFDYWGQGTLVTVSA VL: not shown | –
60 | 0.0012 | 20000 | 9.6 | 1.1e-09 | – | – | – | – | – | H2bM2891N (antibody, mouse IgG2, V domains shown, H2M prefix = mouse IgG2 Fc (here H2bM); also called H2M2891N) VH: EVQMVESGGGLVQPGGSLRLSCAASRFTLSNYWMGWVRQAPGKGLEWVANIKQDGSEKYYVDSVRGRFTISRDNAKNSLYLQMNSLRAEDTAVYYCARDYDFWRSFDYWGQGTLVTVPS VL: DIQMTQSPSSVSASVGDRVTITCRASQGVSSWLAWYQQTPGKAPKLLIYVVSSLQSGVPSRFSGSGSGTDFTLTINSLQPEDFATYYCQQGNSFPYTFGQGTKLEIK | –
15 | 0.0013 | 80000 | 8.9 | 1.6e-09 | – | – | – | – | – | H2bM2906N (antibody, mouse IgG2, V domains shown, H2M prefix = mouse IgG2 Fc (here H2bM); also called H2M2906N) VH: EVQMVESGGGLVQPGGSLRLSCAASGFTLSNYWMGWVRQAPGKGLEWVANIKQDGSEKYYVDSVRGRFTISRDNAKNSLYLQMNSLRAEDTAVYYCARDYDFWRSFDYWGQGTLVTVSS VL: DIQMTQSPSSVSASVGDRVTITCRASQGVSSWLAWYQQKPGKTPKLLIYVVSSLQSGVPSRFSGRGSGTDFTLTINSLQPEDFATYYCQQGNSFPYTFGQGTKLEIK | –
8.8 | 0.00145 | 164000 | 8 | 1.7e-09 | – | – | – | – | – | H2aM2901N (antibody, mouse IgG2, V domains shown, H2M prefix = mouse IgG2 Fc (here H2aM); also called H2M2901N) VH: EVQLVESGGGLVKPGGSLRLSCAASGFTFSYYSMIWVRQAPGKGLEWVSSISSSSSYIYYADSVKGRFTISRDNAKKSMYLQMNSLRAEDTAVYYCARGSGYPDYWGQGTLVTVSS VL: DIQMTQSPSSLSASVGDRVTITCRASQGINNYLAWYQQKPGKVPKLLIYAASTLRSGVPSRFSGSGSGTDFTLTISSLQPEDVATYYCQKYNSAPFTFGPGTKVDIK | –
15.3 | 0.00189 | 123000 | 6.1 | – | 3.5e-09 | – | – | – | – | H2bM2782N (antibody, mouse IgG2, V domains shown, H2M prefix = mouse IgG2 Fc (here H2bM); also called H2M2782N) VH: EVQLVESGGGLVQPGGSLRLSCAASGFTFSSYSMNWVRQAPGKGLEWVSSISSSSNYINYADSIKGRFTISRDNAKNSLYLQMNSLRAEDTAVYYCARVNWDYPFDCWGRGTLVTVSS VL: DIQMTQSPSSLSASVGDRVTITCRASQDIRHYLVWYQQKPGKVPKLLIYAASTLQSGVPSRFSGSGSGTDFILTISSLQPEDVATYYCQKYNSAPFTFGPGTKVDIK | –
– | – | – | – | 1.4e-09 | – | – | – | – | – | H2aM2898N (antibody, mouse IgG2, V domains shown, H2M prefix = mouse IgG2 Fc (here H2aM); also called H2M2898N) VH: EVQLVESGGGLVQPGGSLRLSCAASGFTFSIYDMHWVRQATGKGLEWVSGIGNAGDTYYAGSVKGRFTISRENAKNSLYLQMNSLRAGDTAVYYCAREGPNYYYYGMDVWGQGTTVTVSS VL: AIQMTQSPSSLSASVGDRVTITCRASQGIRDDLGWYQQKPGKAPKLLIYAASSLQSGVPSRFSGSGSGTDFTLTISSLQPEDFATYYCLQDYNYPWTFGQGTKVEIK | no binding (tested: 11 to 100 nM hGREM1-His injected)
– | – | – | – | – | – | 6 nM and 4.3 nM and 4.2 nM and 5.4 nM | 10.3 | 2.9 | 4.4e-09 | B1 | –
29 | 0.00362 | 125000 | 3 | 2.2e-09 | – | – | – | – | – | H3M2929N (antibody, V domains shown, H3M prefix marks the Fc (chimeric, mouse constant domains)) VH: QVQLVESGGGVVQPGRSLRLSCAASGFIFSSYGMHWVRQAPGKGLEWVAVIWNDGSNKYSADSVKGRFTVSRDNSKNTLYLQMNSLKAEDTAVYYCARDGEWEVFDYWGQGTLVTVSS VL: DIVMTQSPVTLSASPGERATLSCRASQSVRSNLAWYQEKPGQAPRLLIYGASTRATGIPARFSGSGSGTEFTLTISSLQSEDFAVYYCQQYNDWPPWTFGQGTKVEIK | –
33 | 0.006 | 180000 | 1.9 | – | 1.9e-08 | – | – | – | – | H2bM2786N (antibody, mouse IgG2, V domains shown, H2M prefix = mouse IgG2 Fc (here H2bM); also called H2M2786N) VH: EVHLLESGGGLVQPGGSLRLSCAASGFTFSSYVMNWVRQAPGKGLEWVSAISGSGGSTYYGDSVKGRSTISRDNSKNTLYLQMKSLRAEDTAVYYCAKGDIAPIVFDAFDIWGQGTMVTVSS VL: DIQMTQSPSSLSASVGDRVTITCQASQDISNCLNWYQHKPGKAPKLLIYDASYLETGVPSRFSGSGSGTDFTFTISSLQPEDIATYYCQQYDNLPYTFGQGTKLEIK | –
4.2 | 0.00035 | 80000 | 33 | – | 2.5e-08 | – | – | – | – | H3M2788N (antibody, V domains shown, H3M prefix marks the Fc (chimeric, mouse constant domains)) VH: QVQLVESGGGVVQPGRSLRLSCAASGFTFSSHGMHWVRQAPGKGLEWVAVIWYDGSNKYHADSVKGRFTIYRDNSKNTLDLQMNSLRVEDTAMYYCAREDSNNEDLDYWGQGTLVTVSS VL: DIQMTQSPSSLSASVGDRVTITCRASQGIRNDLGWFQQKPGKAPKRLIYVASNLQSGVPSRFSGSGSGTEFTLTISSLQPEDFATYYCLQHSNYPPWTFGQGTKVEIK | –
45.3 | 0.00281 | 62000 | 4.1 | 1.8e-09 | – | – | – | – | – | H1M2907N (antibody, V domains shown, H1M prefix marks the Fc (chimeric, mouse constant domains)) VH: QVQLVESGGGVVQPGRSLRLSCAASGFTFSSYGMHWVRQAPGKGLEWVAIIWNDGSNKYYVDSVKGRFTISRANSKNTLYLQMNSLRAEDTAVYYCARDGLEPDAFDIWGQGTMVTVSS VL: EIVLTQSPATLSLSPGERATLSCRASQSVSSFLAWYQQKPGQAPRLLIYDASNRATGIPARFSGSGSGTDFTLTISSLEPEDFAVYYCQQRSNWPPYTFGQGTKLEIK | –
